Data: PMC11070986 (Nature, 2024)

Target: the molecule itself
Experiment: cryo-EM structure

B1: human VMAT1(ΔL1/2) (natural protein, UniProt P54219 1-525, looked up)
chain: MLRTILDAPQRLLKEGRASRQLVLVVVFVALLLDNMLFTVVVPIVPTFLYDMEFKEVNSSLHLGHAGSNCLQGTGFLEEEITRVGVLFASKAVMQLLVNPFVGPLTNRIGYHIPMFAGFVIMFLSTVMFAFSGTYTLLFVARTLQGIGSSFSSVAGLGMLASVYTDDHERGRAMGTALGGLALGLLVGAPFGSVMYEFVGKSAPFLILAFLALLDGALQLCILQPSKVSPESAKGTPLFMLLKDPYILVAAGSICFANMGVAILEPTLPIWMMQTMCSPKWQLGLAFLPASVSYLIGTNLFGVLANKMGRWLCSLIGMLVVGTSLLCVPLAHNIFGLIGPNAGLGLAIGMVDSSMMPIMGHLVDLRHTSVYGSVYAIADVAFCMGFAIGPSTGGAIVKAIGFPWLMVITGVINIVYAPLCYYLRSPPAKEEKLAILSQDCPMETRMYATQKPTKEFPLGEDSDEEPDHEE
- stoichiometry N: 2
